According to the supplement of paper PMC10567573:

B1: ALKBH7 (parent)
chain: SVICRSLPEGMGPGESGQPPPAC
B2: SFRS1 (parent)
chain: RDIDLKNRRGGPPFAFVEFEDPRD

Variants of: B1
Assay: protein stability index of a GFP-peptide fusion (GPS, HEK-293T) (PSI 1-6); higher = more stable
Conditions: c terminus: native
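Further: lentivirally expressed fusions sorted by FACS into six bins by GFP to DsRed ratio, PSI derived from sequencing read proportions per bin multiplied by bin number.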

Q: Which protein stability index does the source give for SVICRSLPEGMGPGESGQPPSAC [P21S] here?
A: The protein stability index was 4.08.

Q: For SVICRSLPEGMGPGESGQPPGAC [P21G], which protein stability index is on record?
A: Its protein stability index is 4.95.

Q: Which protein stability index does the source give for SVICRSLPEGMGPGESGQPPVAC [P21V] here?
A: The protein stability index was 3.21.

Q: With SVICRSLPEGMGPGESGQPPMAC [P21M] as the variant, how does the protein stability index read?
A: The protein stability index was 1.18.

Q: For SVICRSLPEGMGPGESGQPPDAC [P21D], which protein stability index is on record?
A: The protein stability index was 2.63.

Q: For SVICRSLPEGMGPGESGQPPAAC [P21A], which protein stability index is on record?
A: The protein stability index was 1.68.

Q: With SVICRSLPEGMGPGESGQPPNAC [P21N] as the variant, how does the protein stability index read?
A: Its protein stability index is 4.05.

Q: Which protein stability index does the source give for SVICRSLPEGMGPGESGQPPYAC [P21Y] here?
A: The protein stability index was 2.59.

Q: With SVICRSLPEGMGPGESGQPPTAC [P21T] as the variant, how does the protein stability index read?
A: Its protein stability index is 2.51.

Q: Which protein stability index does the source give for SVICRSLPEGMGPGESGQPPLAC [P21L] here?
A: Its protein stability index is 1.28.

Q: Which protein stability index does the source give for SVICRSLPEGMGPGESGQPPQAC [P21Q] here?
A: Its protein stability index is 3.36.

Q: For SVICRSLPEGMGPGESGQPPCAC [P21C], which protein stability index is on record?
A: The protein stability index was 2.17.

Q: With SVICRSLPEGMGPGESGQPPFAC [P21F] as the variant, how does the protein stability index read?
A: The protein stability index was 2.69.

Q: For SVICRSLPEGMGPGESGQPPKAC [P21K], which protein stability index is on record?
A: Its protein stability index is 3.92.

Q: With SVICRSLPEGMGPGESGQPPIAC [P21I] as the variant, how does the protein stability index read?
A: Its protein stability index is 2.5.

Q: For SVICRSLPEGMGPGESGQPPEAC [P21E], which protein stability index is on record?
A: Its protein stability index is 2.47.

Q: Which protein stability index does the source give for SVICRSLPEGMGPGESGQPPHAC [P21H] here?
A: The protein stability index was 3.44.

Q: For SVICRSLPEGMGPGESGQPPPFC [A22F], which protein stability index is on record?
A: The protein stability index was 5.01.

Q: With SVICRSLPEGMGPGESGQPPPNC [A22N] as the variant, how does the protein stability index read?
A: The protein stability index was 5.43.

Q: Which protein stability index does the source give for SVICRSLPEGMGPGESGQPPPQC [A22Q] here?
A: Its protein stability index is 4.92.

Q: With SVICRSLPEGMGPGESGQPPPMC [A22M] as the variant, how does the protein stability index read?
A: Its protein stability index is 4.74.

Q: Which protein stability index does the source give for SVICRSLPEGMGPGESGQPPPDC [A22D] here?
A: Its protein stability index is 5.53.

Q: With SVICRSLPEGMGPGESGQPPPHC [A22H] as the variant, how does the protein stability index read?
A: Its protein stability index is 4.75.

Q: For SVICRSLPEGMGPGESGQPPPYC [A22Y], which protein stability index is on record?
A: The protein stability index was 4.68.

Q: Which protein stability index does the source give for SVICRSLPEGMGPGESGQPPPRC [A22R] here?
A: The protein stability index was 5.

Q: Which protein stability index does the source give for SVICRSLPEGMGPGESGQPPPKC [A22K] here?
A: Its protein stability index is 5.64.

Q: With SVICRSLPEGMGPGESGQPPPWC [A22W] as the variant, how does the protein stability index read?
A: The protein stability index was 4.77.

Q: Which protein stability index does the source give for SVICRSLPEGMGPGESGQPPPIC [A22I] here?
A: Its protein stability index is 3.19.

Q: With SVICRSLPEGMGPGESGQPPPLC [A22L] as the variant, how does the protein stability index read?
A: The protein stability index was 4.3.

Q: With SVICRSLPEGMGPGESGQPPPEC [A22E] as the variant, how does the protein stability index read?
A: The protein stability index was 4.63.

Q: Which protein stability index does the source give for SVICRSLPEGMGPGESGQPPPCC [A22C] here?
A: Its protein stability index is 4.31.

Q: For SVICRSLPEGMGPGESGQPPPVC [A22V], which protein stability index is on record?
A: The protein stability index was 3.77.

Q: For SVICRSLPEGMGPGESGQPPPSC [A22S], which protein stability index is on record?
A: The protein stability index was 3.69.

Q: For SVICRSLPEGMGPGESGQPPPGC [A22G], which protein stability index is on record?
A: Its protein stability index is 5.1.

Q: With SVICRSLPEGMGPGESGQPPPTC [A22T] as the variant, how does the protein stability index read?
A: Its protein stability index is 4.77.

Q: With SVICRSLPEGMGPGESGQPEPAC [P20E] as the variant, how does the protein stability index read?
A: Its protein stability index is 3.55.

Q: Which protein stability index does the source give for SVICRSLPEGMGPGESGQPTPAC [P20T] here?
A: Its protein stability index is 2.08.

Q: Which protein stability index does the source give for SVICRSLPEGMGPGESGQPFPAC [P20F] here?
A: Its protein stability index is 2.45.

Q: Which protein stability index does the source give for SVICRSLPEGMGPGESGQPKPAC [P20K] here?
A: Its protein stability index is 4.38.

Q: For SVICRSLPEGMGPGESGQPDPAC [P20D], which protein stability index is on record?
A: The protein stability index was 4.12.

Q: For SVICRSLPEGMGPGESGQPIPAC [P20I], which protein stability index is on record?
A: Its protein stability index is 3.72.

Q: Which protein stability index does the source give for SVICRSLPEGMGPGESGQPHPAC [P20H] here?
A: Its protein stability index is 3.78.

Q: For SVICRSLPEGMGPGESGQPCPAC [P20C], which protein stability index is on record?
A: The protein stability index was 2.42.

Q: With SVICRSLPEGMGPGESGQPNPAC [P20N] as the variant, how does the protein stability index read?
A: The protein stability index was 4.14.

Q: With SVICRSLPEGMGPGESGQPRPAC [P20R] as the variant, how does the protein stability index read?
A: Its protein stability index is 4.09.

Q: With SVICRSLPEGMGPGESGQPYPAC [P20Y] as the variant, how does the protein stability index read?
A: Its protein stability index is 3.31.

Q: Which protein stability index does the source give for SVICRSLPEGMGPGESGQPQPAC [P20Q] here?
A: The protein stability index was 1.64.

Q: With SVICRSLPEGMGPGESGQPMPAC [P20M] as the variant, how does the protein stability index read?
A: Its protein stability index is 1.79.

Q: Which protein stability index does the source give for SVICRSLPEGMGPGESGQPSPAC [P20S] here?
A: The protein stability index was 3.75.

Q: Which protein stability index does the source give for SVICRSLPEGMGPGESGQPGPAC [P20G] here?
A: Its protein stability index is 4.91.

Q: For SVICRSLPEGMGPGESGQYPPAC [P19Y], which protein stability index is on record?
A: The protein stability index was 2.33.

Q: For SVICRSLPEGMGPGESGQEPPAC [P19E], which protein stability index is on record?
A: Its protein stability index is 5.1.

Q: With SVICRSLPEGMGPGESGQKPPAC [P19K] as the variant, how does the protein stability index read?
A: Its protein stability index is 3.18.

Q: For SVICRSLPEGMGPGESGQSPPAC [P19S], which protein stability index is on record?
A: The protein stability index was 4.04.

Q: With SVICRSLPEGMGPGESGQHPPAC [P19H] as the variant, how does the protein stability index read?
A: Its protein stability index is 3.66.

Q: Which protein stability index does the source give for SVICRSLPEGMGPGESGQIPPAC [P19I] here?
A: Its protein stability index is 3.09.

Q: For SVICRSLPEGMGPGESGQLPPAC [P19L], which protein stability index is on record?
A: The protein stability index was 2.19.

Q: For SVICRSLPEGMGPGESGQTPPAC [P19T], which protein stability index is on record?
A: The protein stability index was 1.95.

Q: Which protein stability index does the source give for SVICRSLPEGMGPGESGQVPPAC [P19V] here?
A: Its protein stability index is 4.2.

Q: For SVICRSLPEGMGPGESGQRPPAC [P19R], which protein stability index is on record?
A: The protein stability index was 2.69.

Q: With SVICRSLPEGMGPGESGQWPPAC [P19W] as the variant, how does the protein stability index read?
A: The protein stability index was 2.26.

Q: With SVICRSLPEGMGPGESGQMPPAC [P19M] as the variant, how does the protein stability index read?
A: Its protein stability index is 1.64.

Q: For SVICRSLPEGMGPGESGQQPPAC [P19Q], which protein stability index is on record?
A: Its protein stability index is 4.22.

Q: For SVICRSLPEGMGPGESGQFPPAC [P19F], which protein stability index is on record?
A: The protein stability index was 1.99.

Q: Which protein stability index does the source give for SVICRSLPEGMGPGESGQNPPAC [P19N] here?
A: The protein stability index was 4.27.

Q: With SVICRSLPEGMGPGESGQPPPAK [C23K] as the variant, how does the protein stability index read?
A: The protein stability index was 4.35.

Q: Which protein stability index does the source give for SVICRSLPEGMGPGESGQPPPAV [C23V] here?
A: Its protein stability index is 4.54.

Q: With SVICRSLPEGMGPGESGQPPPAI [C23I] as the variant, how does the protein stability index read?
A: The protein stability index was 5.17.

Q: Which protein stability index does the source give for SVICRSLPEGMGPGESGQPPPAF [C23F] here?
A: The protein stability index was 4.57.

Q: For SVICRSLPEGMGPGESGQPPPAW [C23W], which protein stability index is on record?
A: Its protein stability index is 4.15.

Q: Which protein stability index does the source give for SVICRSLPEGMGPGESGQPPPAM [C23M] here?
A: Its protein stability index is 5.48.

Q: Which protein stability index does the source give for SVICRSLPEGMGPGESGQPPPAY [C23Y] here?
A: The protein stability index was 4.45.

Q: For SVICRSLPEGMGPGESGQPPPAN [C23N], which protein stability index is on record?
A: The protein stability index was 5.35.

Q: With SVICRSLPEGMGPGESGQPPPAE [C23E] as the variant, how does the protein stability index read?
A: The protein stability index was 4.31.

Q: Which protein stability index does the source give for SVICRSLPEGMGPGESGQPPPAL [C23L] here?
A: Its protein stability index is 4.69.

Q: For SVICRSLPEGMGPGESGQPPPAH [C23H], which protein stability index is on record?
A: Its protein stability index is 5.02.

Q: For SVICRSLPEGMGPGESGQPPPAQ [C23Q], which protein stability index is on record?
A: The protein stability index was 3.8.

Q: Which protein stability index does the source give for SVICRSLPEGMGPGESGQPPPAD [C23D] here?
A: Its protein stability index is 4.63.

Q: Which protein stability index does the source give for SVICRSLPEGMGPGESGQPPPAT [C23T] here?
A: The protein stability index was 4.52.

Q: For SVICRSLPEGMGPGESGQPPPAS [C23S], which protein stability index is on record?
A: The protein stability index was 2.99.

Q: Which protein stability index does the source give for SVICRSLPEGMGPGESGQPPPAR [C23R] here?
A: Its protein stability index is 4.76.

Variants of: B2
Assay: as above
Conditions: c terminus: a fixed tail appended

Q: Which protein stability index does the source give for YDIDLKNRRGGPPFAFVEFEDPRD [R1Y] here?
A: The protein stability index was 3.65.

Q: Which protein stability index does the source give for KDIDLKNRRGGPPFAFVEFEDPRD [R1K] here?
A: The protein stability index was 3.57.

Q: With WDIDLKNRRGGPPFAFVEFEDPRD [R1W] as the variant, how does the protein stability index read?
A: The protein stability index was 2.69.

Q: With SDIDLKNRRGGPPFAFVEFEDPRD [R1S] as the variant, how does the protein stability index read?
A: Its protein stability index is 3.84.

Q: Which protein stability index does the source give for IDIDLKNRRGGPPFAFVEFEDPRD [R1I] here?
A: Its protein stability index is 3.1.

Q: For TDIDLKNRRGGPPFAFVEFEDPRD [R1T], which protein stability index is on record?
A: Its protein stability index is 3.94.

Q: For GDIDLKNRRGGPPFAFVEFEDPRD [R1G], which protein stability index is on record?
A: The protein stability index was 4.01.

Q: With PDIDLKNRRGGPPFAFVEFEDPRD [R1P] as the variant, how does the protein stability index read?
A: The protein stability index was 3.81.

Q: Which protein stability index does the source give for LDIDLKNRRGGPPFAFVEFEDPRD [R1L] here?
A: Its protein stability index is 4.21.

Q: With MDIDLKNRRGGPPFAFVEFEDPRD [R1M] as the variant, how does the protein stability index read?
A: Its protein stability index is 4.04.

Q: Which protein stability index does the source give for VDIDLKNRRGGPPFAFVEFEDPRD [R1V] here?
A: Its protein stability index is 3.97.

Q: For FDIDLKNRRGGPPFAFVEFEDPRD [R1F], which protein stability index is on record?
A: Its protein stability index is 3.19.

Q: Which protein stability index does the source give for QDIDLKNRRGGPPFAFVEFEDPRD [R1Q] here?
A: The protein stability index was 3.96.

Q: Which protein stability index does the source give for EDIDLKNRRGGPPFAFVEFEDPRD [R1E] here?
A: Its protein stability index is 4.36.
